This is an account of results in EP4678655A1.

Values joined by “and” are separate entries in the source; they are usually repeats but may differ in a detail not shown here. Equal values may be shown once.

In test [1] the target is T1, hTregL1-his tryptic peptide 498-531 (human).
T1 sequence (peptide): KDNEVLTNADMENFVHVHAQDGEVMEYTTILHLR
Briefly: affinity-MS: tryptic antigen peptides eluted from antibody-CNBr column, LC-MS.

Test [2] concerns the target T2, hTregL1-his tryptic peptide 499-529 (human).
T2 sequence (peptide): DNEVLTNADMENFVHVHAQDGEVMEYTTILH
The test is described as above.

Test [3] concerns the target T3, hTregL1-his tryptic peptide 499-531 (human).
T3 sequence (peptide): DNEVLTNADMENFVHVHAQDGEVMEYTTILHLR
The description is as above.

The target in test [4] is T4, hTregL1-his chymotryptic peptide 113-134 (human).
T4 sequence (peptide, N-glycan at 116(N)): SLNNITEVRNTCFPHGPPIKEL
Briefly: affinity-MS: chymotryptic antigen peptides eluted from antibody-CNBr column, LC-MS.

Test [5] concerns the target T5, hTregL1-his chymotryptic peptide 270-280 (human).
T5 sequence (peptide): SFCQKLHELVL
Described as above.

The target of test [6] is T6, hTregL1-his chymotryptic peptide 327-344 (human).
T6 sequence (peptide): DLDHNEISGTIEDTSGAF
The test is described as above.

Test [7] deals with T7, hTregL1-his chymotryptic peptide 402-416 (human).
T7 sequence (peptide): HISSDSFLCDCQLKW
The test is described as above.

In test [8] the target is T8, hTregL1-his chymotryptic peptide 427-440 (human).
T8 sequence (peptide): QAFVTATCAHPESL
The description is as above.

The target of test [9] is T9, hTregL1-his chymotryptic peptide 430-440 (human).
T9 sequence (peptide): VTATCAHPESL
The description is as above.

Test [10] has as its target T10, hTregL1-his chymotryptic peptide 430-446 (human).
T10 sequence (peptide): VTATCAHPESLKGQSIF
The description is as above.

In test [11] the target is T11, hTregL1-his chymotryptic peptide 447-471 (human).
T11 sequence (peptide): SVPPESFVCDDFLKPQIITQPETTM
Described as above.

Test [12] deals with T12, hTregL1-his chymotryptic peptide 472-492 (human).
T12 sequence (peptide): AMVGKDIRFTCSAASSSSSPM
The description is as above.

Test [13] has as its target T13, hTregL1-his chymotryptic peptide 529-535 (human).
T13 sequence (peptide): HLRQVTF
The description is as above.

The target of test [14] is T14, hTregL1-his chymotryptic peptide 536-553 (human).
T14 sequence (peptide): GHEGRYQCVITNHFGSTY
Described as above.

The target of test [15] is T15, hTregL1-his chymotryptic peptide 585-598 (human).
T15 sequence (peptide): ECAATGHPNPQIAW
Described as above.

The target in test [16] is T16, hTregL1-his chymotryptic peptide 624-636 (human).
T16 sequence (peptide): FITDVKIDDAGVY
Described as above.

In test [17] the target is T17, hTregL1-his chymotryptic peptide 637-653 (human).
T17 sequence (peptide, N-glycan at 650(N)): SCTAQNSAGSISANATL
The description is as above.

Test [18] has as its target T18, hTregL1-his chymotryptic peptide 728-744 (human).
T18 sequence (peptide): TCEMSNTLGTERAHSQL
The test is described as above.

B1: GTC310-01-hlgG1 (antibody, human IgG1, kappa, V domains shown)
VH: EVQLLESGGGLVQPGGSLRLSCAASGFTFSNYAMSWVRQAPGKGLEWVSVISHGGGSTYYADSVKGRFTISRDNSKNTLYLQMNSLRAEDTAVYYCARVISNCHLGVCYYSNGMDVWGQGTLVTVSS
VL: QLVLTQPPSVSAAPGQRVSISCSGSSSNIGDNYVSWYQQVPGSAPKLLIYDNNKRPSGIPDRFSASKSGTSATLGITGLQTGDEADYYCATWDGSLSAGRVFGGGTKLTVLR
On to B1, for which the MS Area was 7.66e+06 and 4.64e+06 and 4.1e+06 in test [1]; 1.21e+06 and 726000 and 442000 in [2]; 1.9e+07 (2×) and 6.9e+06 in [3]; 556000 and 544000 in test [4]; 459000 and 335000 in test [5]; 283000 and 298000 in test [6]. In addition, the MS Area was 1.67e+07 and 7.24e+06 in [7]; 1.05e+06 and 554000 in test [8]; 1.59e+07 and 1.18e+07 in test [9]; 1e+06 and 705000 in test [10]; 1.62e+06 and 1.32e+06 in test [11]; 407000 and 325000 in test [12]. The MS Area in test [13] was 378000 and 312000; in [14], 497000 and 295000; in test [15] it was 766000 and 374000; in test [16] it was 473000 and 399000; in test [17], 334000 and 207000; in test [18], 335000 and 736000.
